Reference: IntAct's records for PubMed 17380123

B1: Zinc finger HIT domain-containing protein 1 (Homo sapiens), O43257 (parent)
chain: MVEKKTSVRSQDPGQRRVLDRAARQRRINRQLEALENDNFQDDPHAGLPQLGKRLPQFDDDADTGKKKKKTRGDHFKLRFRKNFQALLEEQNLSVAEGPNYLTACAGPPSRPQRPFCAVCGFPSPYTCVSCGARYCTVRCLGTHQETRCLKWTV

Variants of: B1
Settings: with mk14_human MAPK14, Q16539
Sequence of mk14_human MAPK14, Q16539 (Q16539 whole entry): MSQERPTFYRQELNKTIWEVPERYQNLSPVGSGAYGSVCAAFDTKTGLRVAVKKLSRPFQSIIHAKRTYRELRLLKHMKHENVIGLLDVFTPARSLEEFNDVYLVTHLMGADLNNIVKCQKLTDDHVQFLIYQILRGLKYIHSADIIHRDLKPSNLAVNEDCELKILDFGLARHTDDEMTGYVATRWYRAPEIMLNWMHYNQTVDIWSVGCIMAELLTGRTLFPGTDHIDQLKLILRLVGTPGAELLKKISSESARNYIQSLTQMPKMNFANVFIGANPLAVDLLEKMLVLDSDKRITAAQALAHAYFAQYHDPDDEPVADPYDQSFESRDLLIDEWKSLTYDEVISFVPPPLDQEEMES
For T103A, the “effect of a mutation on the interaction” value was “disrupting interaction”.
